# In patent US20090325869A1 (CHILDREN S HOSPITAL AND RESEARCH CENTER OAKLAND, published 2009):
# Target: T1, Ferritin H (frog), wild type, protein nanocage (frog, UniProt P07229 2-176)
# T1 sequence (looked up): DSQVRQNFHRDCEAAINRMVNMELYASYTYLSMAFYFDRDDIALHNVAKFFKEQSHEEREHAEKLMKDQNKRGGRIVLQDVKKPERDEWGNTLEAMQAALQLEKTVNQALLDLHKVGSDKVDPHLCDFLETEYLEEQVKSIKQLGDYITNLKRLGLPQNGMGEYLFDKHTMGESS
# Test: cell-based or functional assay
binder,measurement,value
"HSNTYYFPKGG [Peptide 1, synthetic undecapeptide HSNTYYFPKGG]","rate of ferritin demineralization, fold against wild type ferritin H without peptide",3.3 fold
